The results in this text go back to patent publication US20220396822A1, “Method for Measuring Pentosidine and Measurement Kit” (Kikkoman Corporation, priority 2019, published 2022).

A short description of data set [1]: Method for measuring enzymatic activity (pentosidine oxidase activity, A555), Examples 9 and 10. The format is biochemical. On the procedure:
The amount of the enzyme that produced 1 μmol of hydrogen peroxide per minute at 37° C. was defined as 1 unit (U). The activity was calculated according to the following expression.
Each buffer was prepared as a 50 mM (final concentration) citric acid-100 mM potassium phosphate buffer (pH 4.0 to 7.5), a 100 mM (final concentration) potassium phosphate buffer (pH 6.5 to 8.0), and a 100 mM (final concentration) glycine buffer (pH 8.0 to 11.0). Enzyme reaction was performed at each pH at a temperature of 37° C. using these buffers. […] It was therefore concluded that the optimum pH of PenOX2 is pH 6.5 to 8.0 and is most preferably pH 7.5.
The activity of PenOX2 was measured at varying temperatures using a 50 mM (final concentration) potassium phosphate buffer (pH 7.5). […] It was thus concluded that the range of the optimum temperature of PenOX2 is from 37° C. to 50° C.
As mentioned above, both PenOX1 and PenOX2 had pentosidine oxidase activity. When the percent match between their amino acid sequences was examined using the BLAST program, the amino acid sequence homology therebetween was 38.2%. […] The amino acid sequence homology to PenOX1 and PenOX2 and pentosidine oxidase activity of each enzyme were as follows.

Data set [2] is described as follows: Pentosidine quantification test (DA-67/peroxidase, A658). The format is biochemical. The following applies: 37° C., pH 7.0. On the procedure: The following reagents were prepared, and pentosidine was measured using Bio Majesty JCA-BM1650 (manufactured by JEOL Ltd.).
0.2 μM, 0.4 μM, 0.6 μM, 1.0 μM, 2.0 μM or 4.0 μM pentosidine solution (prepared using the same pentosidine as in Example 2)
120 mM potassium phosphate buffer (pH 7.0)
0.2 mM DA-67 (10-(carboxymethylaminocarbonyl)-3,7-bis(dimethylamino)phenothiazine, sodium salt) (manufactured by FUJIFILM Wako Pure Chemical Corp.)
25 μL of each sample was added to 50 μL of the first reagent, and the mixture was incubated at 37° C. for 5 minutes. Then, 25 μL of the second reagent was added thereto, and pentosidine oxidation reaction mediated by PenOX2 and reaction for the detection of hydrogen peroxide produced through the reaction were allowed to proceed at 37° C. for 5 minutes.
In the reaction for the detection of hydrogen peroxide, DA-67 was oxidized, with concomitant consumption of […], into methylene blue which in turn developed color while absorbance (A658) was elevated. […] Elevation in A658 was able to be confirmed immediately after addition of the second reagent containing PenOX2.
Subsequently, the amount of elevation in A658 (ΔA) caused by the oxidation of pentosidine was calculated according to the following expression.
ΔA=(Absorbance 5 minutes after addition of the second reagent)−(Absorbance immediately before addition of the second reagent×0.75)

The nature of data set [3]: Heat stability and stable pH of PenOX2 (residual activity). The following applies: treated at each temperature for 10 minutes; residual activity at 37° C., pH 7.5; FIG. 9.
Method: 600 μL of an arbitrary buffer, 400 μL of a solution of 3.99 U/mL peroxidase, 1.8 mM 4-aminoantipyrine, and 2 mM TOOS dissolved in deionized water, and 150 μL of deionized water were incubated at an arbitrary temperature for 10 minutes. Then, 50 μL of the enzyme liquid preserved on ice and 400 μL of a solution of 2 mM pentosidine dissolved in a 100 mM potassium phosphate buffer (pH 8.0) incubated at an arbitrary temperature for 10 minutes were added thereto, and the mixture was stirred and reacted at an arbitrary temperature for 3 minutes. Time-dependent change in A555 during the reaction was measured in a spectrophotometer (U-3900, manufactured by Hitachi High-Tech Science Corp.). Time elapsed after the start of measurement—amount of change in A555 from 20 seconds to 60 seconds was regarded as an activity value.
The enzyme liquid treated at each temperature for 10 minutes was evaluated for residual activity by performing the activity measurement described above at a temperature of 37° C. using a 100 mM (final concentration) potassium phosphate buffer (final pH at the time of activity measurement: 7.5).

A word on the Km: it is the substrate concentration at which the rate is half of its maximum.

B1: PenOX2: protein having the amino acid sequence of SEQ ID NO: 4, pentosidine oxidase from a filamentous fungus of the genus Sarocladium (protein, listed as Sarocladium sp.)
chain: MFTPKAWIPLLALSREVFSNPTSASHSISFHGLLGVSSESVHNIHLTYGDAFPHGDFRVVFGDCGMTSEDELHHEVASLSTKMESAPDRLVWLVPKDVRENGCLHAFSEGVLLGRSEPVAFTEPLRKRESLSEIGDSDGLWFSGIRYLQSSNLTSVKAAEAKEKKIGIVGGGISGLMTSLLLTSVGMTNWHIIEATERVGGRIRTKYMNGTSPDDYQYQEMGPMRFPVEVKYNDTNETLPIQDHKMVFQLAEVLNEMNGNDTDLAVKFIPWTQNNPNTPANSRGYRLPDGRIPTAAQIAQNPSILPAAANASDPQDAELGKESLERLSDLTPERMRNISANIFKAHRDAIDRGLFHWSEAAYLRYQLGLDDDTVDFVAASDNYPMFPDWWHAVYFAATKWLTIDKGLDSLSRAFVPHVKDKITYGRKIEAMQWNESTSKISLSWRESPLAAAKSDEYDYAVVAVPFSKVRLWKRPAYSNLLTRAIGKLNYEQACKVALLYETRFWEHQEIPIFGGCGSVDIPGIGGVCYPSYEINSTRPGVILSSYITGTEARSVVALSEEDHVAMVQRAMVEVHGPMADEQWTGIYDRLCWEVDENAAGGWASPTVGQQELFIPAYHKTELNTIFIGEHTSITHGWIFSALESSVRGTTQLLLDLGLVDEAKQIVETWMARWITV
As for B1, in data set [1] (50 mM potassium phosphate buffer pH 7.5, FIG. 8), the “temperature at which the highest activity was exhibited” value was “around 50 °C”. Moreover, in data set [1] (37° C., pH 7.5, Lineweaver-Burk plot, FIG. 11, read-out: Km value for pentosidine (free form)), the Km is 70 µM. Besides, in data set [1] (37° C., FIG. 7), the “pH of highest activity” value is recorded as 7.5 pH. Also, in data set [2], the pentosidine oxidizing activity entry was “exhibits pentosidine oxidizing activity”. The “heat stability (stable up to)” value in data set [3] is “around 30 °C”.
